B1: Variant A2M, bait region SEQ ID NO 139, P01023 24-1474 (protein)
chain: SVSGKPQYMVLVPSLLHTETTEKGCVLLSYLNETVTVSASLESVRGNRSLFTDLEAENDVLHCVAFAVPKSSSNEEVMFLTVQVKGPTQEFKKRTTVMVKNEDSLVFVQTDKSIYKPGQTVKFRVVSMDENFHPLNELIPLVYIQDPKGNRIAQWQSFQLEGGLKQFSFPLSSEPFQGSYKVVVQKKSGGRTEHPFTVEEFVLPKFEVQVTVPKIITILEEEMNVSVCGLYTYGKPVPGHVTVSICRKYSDASDCHGEDSQAFCEKFSGQLNSHGCFYQQVKTKVFQLKRKEYEMKLHTEAQIQEEGTVVELTGRQSSEITRTITKLSFVKVDSHFRQGIPFFGQVRLVDGKGVPIPNKVIFIRGNEANYYSNATTDEHGLVQFSINTTNVMGTSLTVRVNYKDRSPCYGYQWVSEEHEEAHHTAYLVFSPSKSFVHLEPMSHELPCGHTQTVQAHYILNGGTLLGLKKLSFYYLIMAKGGIVRTGTHGLLVKQEDMKGHFSISIPVKSDIAPVARLLIYAVLPTGDVIGDSAKYDVENCLANKVDLSFSPSQSLPASHAHLRVTAAPQSVCALRAVDQSVLLMKPDAELSASSVYNLLPEKDLTGFPGPLNDQDDEDCINRHNVYINGITYTPVSSTNEKDMYSFLEDMGLKAFTNSKIRKPKMCPQLEQYEMHGPSEDLVVQIEGEGEGEGIPENFFGVEAIPMSIPTEPHTKLRKYFPETWIWDLVVVNSAGVAEVGVTVPDTITEWKAGAFCLSEDAGLGISSTASLRAFQPFFVELTMPYSVIRGEAFTLKATVLNYLPKCIRVSVQLEASPAFLAVPVEKEQAPHCICANGRQTVSWAVTPKSLGNVNFTVSAEALESQELCGTEVPSVPEHGRKDTVIKPLLVEPEGLEKETTFNSLLCPSGGEVSEELSLKLPPNVVEESARASVSVLGDILGSAMQNTQNLLQMPYGCGEQNMVLFAPNIYVLDYLNETQQLTPEIKSKAIGYLNTGYQRQLNYKHYDGSYSTFGERYGRNQGNTWLTAFVLKTFAQARAYIFIDEAHITQALIWLSQRQKDNGCFRSSGSLLNNAIKGGVEDEVTLSAYITIALLEIPLTVTHPVVRNALFCLESAWKTAQEGDHGSHVYTKALLAYAFALAGNQDKRKEVLKSLNEEAVKKDNSVHWERPQKPKAPVGHFYEPQAPSAEVEMTSYVLLAYLTAQPAPTSEDLTSATNIVKWITKQQNAQGGFSSTQDTVVALHALSKYGAATFTRTGKAAQVTIQSSGTFSSKFQVDNNNRLLLQQVSLPELPGEYSMKVTGEGCVYLQTSLKYNILPEKEEFPFALGVQTLPQTCDEPKAHTSFQISLSVSYTGSRSASNMAIVDVKMVSGFIPLKPTVKMLERSNHVSRTEVSSNHVLIYLDKVSNQTLSLFFTVLQDVPVRDLKPAIVKVYDYYETDEFAIAEYNAPCSKDLGNADYKDDDDKGASHHHHHH
B2: Variant A2M, bait region SEQ ID NO 143, P01023 24-1474 (protein)
chain: SVSGKPQYMVLVPSLLHTETTEKGCVLLSYLNETVTVSASLESVRGNRSLFTDLEAENDVLHCVAFAVPKSSSNEEVMFLTVQVKGPTQEFKKRTTVMVKNEDSLVFVQTDKSIYKPGQTVKFRVVSMDENFHPLNELIPLVYIQDPKGNRIAQWQSFQLEGGLKQFSFPLSSEPFQGSYKVVVQKKSGGRTEHPFTVEEFVLPKFEVQVTVPKIITILEEEMNVSVCGLYTYGKPVPGHVTVSICRKYSDASDCHGEDSQAFCEKFSGQLNSHGCFYQQVKTKVFQLKRKEYEMKLHTEAQIQEEGTVVELTGRQSSEITRTITKLSFVKVDSHFRQGIPFFGQVRLVDGKGVPIPNKVIFIRGNEANYYSNATTDEHGLVQFSINTTNVMGTSLTVRVNYKDRSPCYGYQWVSEEHEEAHHTAYLVFSPSKSFVHLEPMSHELPCGHTQTVQAHYILNGGTLLGLKKLSFYYLIMAKGGIVRTGTHGLLVKQEDMKGHFSISIPVKSDIAPVARLLIYAVLPTGDVIGDSAKYDVENCLANKVDLSFSPSQSLPASHAHLRVTAAPQSVCALRAVDQSVLLMKPDAELSASSVYNLLPEKDLTGFPGPLNDQDDEDCINRHNVYINGITYTPVSSTNEKDMYSFLEDMGLKAFTNSKIRKPKMCPQLEQYEMHGPIPENFFGVSEDLVVQIEGEGEGEGEAIPMSIPTEPHTKLRKYFPETWIWDLVVVNSAGVAEVGVTVPDTITEWKAGAFCLSEDAGLGISSTASLRAFQPFFVELTMPYSVIRGEAFTLKATVLNYLPKCIRVSVQLEASPAFLAVPVEKEQAPHCICANGRQTVSWAVTPKSLGNVNFTVSAEALESQELCGTEVPSVPEHGRKDTVIKPLLVEPEGLEKETTFNSLLCPSGGEVSEELSLKLPPNVVEESARASVSVLGDILGSAMQNTQNLLQMPYGCGEQNMVLFAPNIYVLDYLNETQQLTPEIKSKAIGYLNTGYQRQLNYKHYDGSYSTFGERYGRNQGNTWLTAFVLKTFAQARAYIFIDEAHITQALIWLSQRQKDNGCFRSSGSLLNNAIKGGVEDEVTLSAYITIALLEIPLTVTHPVVRNALFCLESAWKTAQEGDHGSHVYTKALLAYAFALAGNQDKRKEVLKSLNEEAVKKDNSVHWERPQKPKAPVGHFYEPQAPSAEVEMTSYVLLAYLTAQPAPTSEDLTSATNIVKWITKQQNAQGGFSSTQDTVVALHALSKYGAATFTRTGKAAQVTIQSSGTFSSKFQVDNNNRLLLQQVSLPELPGEYSMKVTGEGCVYLQTSLKYNILPEKEEFPFALGVQTLPQTCDEPKAHTSFQISLSVSYTGSRSASNMAIVDVKMVSGFIPLKPTVKMLERSNHVSRTEVSSNHVLIYLDKVSNQTLSLFFTVLQDVPVRDLKPAIVKVYDYYETDEFAIAEYNAPCSKDLGNADYKDDDDKGASHHHHHH
B3: Variant A2M, bait region SEQ ID NO 142, P01023 24-1474 (protein)
chain: SVSGKPQYMVLVPSLLHTETTEKGCVLLSYLNETVTVSASLESVRGNRSLFTDLEAENDVLHCVAFAVPKSSSNEEVMFLTVQVKGPTQEFKKRTTVMVKNEDSLVFVQTDKSIYKPGQTVKFRVVSMDENFHPLNELIPLVYIQDPKGNRIAQWQSFQLEGGLKQFSFPLSSEPFQGSYKVVVQKKSGGRTEHPFTVEEFVLPKFEVQVTVPKIITILEEEMNVSVCGLYTYGKPVPGHVTVSICRKYSDASDCHGEDSQAFCEKFSGQLNSHGCFYQQVKTKVFQLKRKEYEMKLHTEAQIQEEGTVVELTGRQSSEITRTITKLSFVKVDSHFRQGIPFFGQVRLVDGKGVPIPNKVIFIRGNEANYYSNATTDEHGLVQFSINTTNVMGTSLTVRVNYKDRSPCYGYQWVSEEHEEAHHTAYLVFSPSKSFVHLEPMSHELPCGHTQTVQAHYILNGGTLLGLKKLSFYYLIMAKGGIVRTGTHGLLVKQEDMKGHFSISIPVKSDIAPVARLLIYAVLPTGDVIGDSAKYDVENCLANKVDLSFSPSQSLPASHAHLRVTAAPQSVCALRAVDQSVLLMKPDAELSASSVYNLLPEKDLTGFPGPLNDQDDEDCINRHNVYINGITYTPVSSTNEKDMYSFLEDMGLKAFTNSKIRKPKMCPQLEQYEMHGPSELEGRGSIPENFFGVEGEGEGEGKEEEGLGSVEEPHTKLRKYFPETWIWDLVVVNSAGVAEVGVTVPDTITEWKAGAFCLSEDAGLGISSTASLRAFQPFFVELTMPYSVIRGEAFTLKATVLNYLPKCIRVSVQLEASPAFLAVPVEKEQAPHCICANGRQTVSWAVTPKSLGNVNFTVSAEALESQELCGTEVPSVPEHGRKDTVIKPLLVEPEGLEKETTFNSLLCPSGGEVSEELSLKLPPNVVEESARASVSVLGDILGSAMQNTQNLLQMPYGCGEQNMVLFAPNIYVLDYLNETQQLTPEIKSKAIGYLNTGYQRQLNYKHYDGSYSTFGERYGRNQGNTWLTAFVLKTFAQARAYIFIDEAHITQALIWLSQRQKDNGCFRSSGSLLNNAIKGGVEDEVTLSAYITIALLEIPLTVTHPVVRNALFCLESAWKTAQEGDHGSHVYTKALLAYAFALAGNQDKRKEVLKSLNEEAVKKDNSVHWERPQKPKAPVGHFYEPQAPSAEVEMTSYVLLAYLTAQPAPTSEDLTSATNIVKWITKQQNAQGGFSSTQDTVVALHALSKYGAATFTRTGKAAQVTIQSSGTFSSKFQVDNNNRLLLQQVSLPELPGEYSMKVTGEGCVYLQTSLKYNILPEKEEFPFALGVQTLPQTCDEPKAHTSFQISLSVSYTGSRSASNMAIVDVKMVSGFIPLKPTVKMLERSNHVSRTEVSSNHVLIYLDKVSNQTLSLFFTVLQDVPVRDLKPAIVKVYDYYETDEFAIAEYNAPCSKDLGNADYKDDDDKGASHHHHHH

Biological target: Protease Mixtures
Assay: cell-based or functional assay

Row | Protease Inhibition (% of WT); Protease Mixtures, IGD Substrate | Binder
1 | 190 % of WT | B1
2 | 110 % of WT | B2
3 | 140 % of WT | B3

From US20230250154A1
